Data set [1] has as its system H3 fragment (the ARM domain) of HSF2BP. In words: Co-immunoprecipitation of Flag-BRCA2 fragments with GFP-HSF2BP fragment H3. To be noted: Fig. 1c; HEK293T; comparison with F15 and F9; reviewer's reading of the figure. It is filed as cell-based, human. The source says:
(§1) Expression constructs for producing point mutation and truncation variants of HS2BP and BRCA2 in human cells were engineered as described before[16] in the PiggyBac vectors by Gibson assembly. For transient expression into HEK293T cells plasmid DNA was transfected using calcium precipitation method or PEI transfection. For stable integration into HeLa cells, PiggyBac expression vectors were co-lipofected together with PiggyBac transposase plasmid (hyPBase[45]) with Lipofectamine 3000 (Thermo Fisher).
Cells were washed twice in ice-cold PBS and lysed in situ in NETT buffer (100 mM NaCl, 50 mM Tris pH 7.5, 5 mM EDTA pH 8.0, 0.5% Triton-X100) supplemented immediately before use with protease inhibitor cocktail (Roche) and 0.4 mg/ml Pefabloc (Roche) (NETT++); 450 µl NETT++ buffer was used per 145 mm dish ES cells, 1 ml for HeLa and HEK293T. After 5–10 min, cells were scraped off and collected in 1.5 ml microcentrifuge tubes; lysis was continued for additional 20–30 min on ice, then mixtures were centrifuged (15 min, 4 °C, 14,000 × g) and the supernatant (input) was added to washed anti-GFP beads (Chromotek). […] For quantitative immunoblotting fluorescently labeled secondary antibodies were used: anti-mouse CF680 (Sigma #SAB460199), anti-rabbit CF770 (Sigma #SAB460215); membranes were scanned using Odyssey CLx imaging system (LI-COR).

In a further data set the test system is GFP-HSF2BP. In words: Co-immunoprecipitation of Flag-BRCA2 variants/fragments with GFP-HSF2BP WT. Conditions: transient HEK293T, anti-GFP beads, immunoblot. It is filed as cell-based, human.
From the text: as §1
Cells were washed twice in ice-cold PBS and lysed in situ in NETT buffer (100 mM NaCl, 50 mM Tris pH 7.5, 5 mM EDTA pH 8.0, 0.5% Triton-X100) supplemented immediately before use with protease inhibitor cocktail (Roche) and 0.4 mg/ml Pefabloc (Roche) (NETT++); 450 µl NETT++ buffer was used per 145 mm dish ES cells, 1 ml for HeLa and HEK293T. After 5–10 min, cells were scraped off and collected in 1.5 ml microcentrifuge tubes; lysis was continued for additional 20–30 min on ice, then mixtures were centrifuged (15 min, 4 °C, 14,000 × g) and the supernatant (input) was added to washed anti-GFP beads (Chromotek). Beads and lysates were incubated 2–4 h at 4 °C while rotating, washed three times in NETT++ buffer and bound proteins were eluted by boiling in 2x Sample buffer. Immunoblotting was performed following standard procedures with the following antibodies: anti-GFP mAb (Roche, #11814460001), anti-GFP pAb (Abcam #ab290 and Invitrogen #A11122), anti-RAD51[46], anti-BRCA2 mAb Ab1 OP-95 (Millipore #OP95), anti-BRCA2 (Abcam #27976), anti-Flag (M2 antibody, Sigma, F3165 and F1804). For quantitative immunoblotting fluorescently labeled secondary antibodies were used: anti-mouse CF680 (Sigma #SAB460199), anti-rabbit CF770 (Sigma #SAB460215); membranes were scanned using Odyssey CLx imaging system (LI-COR).
(In general: In western blotting, separated proteins are transferred to a membrane and probed.)

The nature of data set [2]: Stability / expression of recombinant GFP-HSF2BP variants. More on the design: species or system human. Conditions: peer review file; immunoblot, FACS.
Data set [3] deals with mitomycin C-induced repair foci. Conditions: cited from earlier work. The source says: Consistent with our in vitro study, we observed in mouse ES cells that deletion of exon 12, coding for motif 1, causes a severe decrease in the BRCA2-HSF2BP interaction, and deletion of exons 12 to 14, coding for motifs 1 and 2, completely abolishes this interaction (Fig. 5d, e). […] We further previously ...

Substitutions are numbered along the chain they refer to. In names and notes the source's numbering stands.

B1: F16: Flag-tagged BRCA2 fragment 2270-2333 (protein, UniProt P51587 2270-2333, looked up, fragment)
chain: GKRRGEPLILVGEPSIKRNLLNEFDRIIENQEKSLKASKSTPDGTIKDRRLFMHHVSLEPITCV
modifications: Flag tag
In the case of B1, the “interaction with H3 (co-precipitation)” value in data set [1] was “same level of interaction”. In addition, the “interaction with HSF2BP (co-precipitation)” value in the data set with GFP-HSF2BP was “reduced efficiency”.

B2: L85R: GFP-HSF2BP point mutant (protein, UniProt O75031 1-334, looked up, variant L85R)
Heat shock factor 2-binding …: MGEAGAAEEACRHMGTKEEFVKVRKKDLERLTTEVMQIRDFLPRILNGEVLESFQKLKIVEKNLERKEQELEQLKMDCEHFKARRETVQADNIREKKEKLALRQQLNEAKQQLLQQAEYCTEMGAAACTLLWGVSSSEEVVKAILGGDKALKFFSITGQTMESFVKSLDGDVQELDSDESQFVFALAGIVTNVAAIACGREFLVNSSRVLLDTILQLLGDLKPGQCTKLKVLMLMSLYNVSINLKGLKYISESPGFIPLLWWLLSDPDAEVCLHVLRLVQSVVLEPEVFSKSASEFRSSLPLQRILAMSKSRNPRLQTAAQELLEDLRTLEHNV
modifications: GFP fusion
notes: GFP-HSF2BP point mutant
Take B2: in data set [2], the “stability of recombinant GFP-HSF2BP variant” value is given as “unstable”.

B3: R200T: HSF2BP mutant R200T (protein, UniProt O75031 1-334, looked up, variant R200T)
Heat shock factor 2-binding …: B2 Heat shock factor 2-binding … with R85L, R200T
As to B3, in data set [3], the “localization of GFP-tagged HSF2BP to mitomycin C-induced repair foci” value is on record as “abolishes localization”.

The record behind these values is PMC8322138, “BRCA2 binding through a cryptic repeated motif to HSF2BP oligomers does not impact meiotic recombination” (Nature Communications, 2021).
